# Test results: the supplement of paper PMC5998384
# How the values were obtained:
# HeLa Kyoto [1] = assay: solubility change mitosis vs G1/S (difference of NP-40 vs SDS log2 ratios) (log2 ratio difference); higher = more soluble in mitosis
# HeLa Kyoto [2] = assay: solubility in G1/S (NP-40 vs SDS abundance) (log2 ratio); higher = more soluble; conditions: cell cycle stage: G1/S
# 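For solubility change mitosis vs G1/S (difference of NP-40 vs SDS log2 ratios) in this document: synchronized HeLa Kyoto cells (double thymidine block for G1/S, nocodazole release for mitosis), protein amounts in NP-40 versus SDS lysates quantified by mass spectrometry, three biological replicates.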
# 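For solubility in G1/S (NP-40 vs SDS abundance) in this document: HeLa Kyoto cells arrested at G1/S by double thymidine block, proteins quantified by TMT10plex mass spectrometry in mild NP-40 versus SDS extracts, three biological replicates.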
Substance,solubility change mitosis (log2) (HeLa Kyoto [1]),solubility in G1/S (log2) (HeLa Kyoto [2])
MWEKMETKTIVYDLDTSGGLMEQIQALLAPPKTDEAEKRSRKPEKEPRRSGRATNHDSCDSCKEGGDLLCCDHCPAAFHLQCCNPPLSEEMLPPGEWMCHRCTVRRKKREQKKELGHVNGLVDKSGKRTTSPSSDTDLLDRSASKTELKAIAHARILERRASRPGTPTSSASTETPTSEQNDVDEDIIDVDEEPVAAEPDYVQPQLRRPFELLIAAAMERNPTQFQLPNELTCTTALPGSSKRRRKEETTGKNVKKTQHELDHNGLVPLPVKVCFTCNRSCRVAPLIQCDYCPLLFHMDCLEPPLTAMPLGRWMCPNHIEHVVLNQKNMTLSNRCQVFDRFQDTVSQHVVKVDFLNRIHKKHPPNRRVLQSVKRRSLKVPDAIKSQYQFPPPLIAPAAIRDGELICNGIPEESQMHLLNSEHLATQAEQQEWLCSVVALQCSILKHLSAKQMPSHWDSEQTEKADIKPVIVTDSSVTTSLQTADKTPTPSHYPLSCPSGISTQNSLSCSPPHQSPALEDIGCSSCAEKSKKTPCGTANGPVNTEVKANGPHLYSSPTDSTDPRRLPGANTPLPGLSHRQGWPRPLTPPAAGGLQNHTVGIIVKTENATGPSSCPQRSLVPVPSLPPSIPSSCASIENTSTLQRKTVQSQIGPPLTDSRPLGSPPNATRVLTPPQAAGDGILATTANQRFSSPAPSSDGKVSPGTLSIGSALTVPSFPANSTAMVDLTNSLRAFMDVNGEIEINMLDEKLIKFLALQRIHQLFPSRVQPSPGSVGTHQLASGGHHIEVQRKEVQARAVFYPLLGLGGAVNMCYRTLYIGTGADMDVCLTNYGHCNYVSGKHACIFYDENTKHYELLNYSEHGTTVDNVLYSCDFSEKTPPTPPSSIVAKVQSVIRRRRHQKQDEEPSEEAAMMSSQAQGPQRRPCNCKASSSSLIGGSGAGWEGTALLHHGSYIKLGCLQFVFSITEFATKQPKGDASLLQDGVLAEKLSLKPHQGPVLRSNSVP [PHF12],0.237,-0.326
MWGFRLLRSPPLLLLLPQLGIGNASSCSQARTMNPGGSGGARCSLSAEVRRRQCLQLSTVPGADPQRSNELLLLAAAGEGLERQDLPGDPAKEEPQPPPQHHVLYFPGDVQNYHEIMTRHPENYQWENWSLENVATILAHRFPNSYIWVIKCSRMHLHKFSCYDNFVKSNMFGAPEHNTDFGAFKHLYMLLVNAFNLSQNSLSKKSLNVWNKDSIASNCRSSPSHTTNGCQGEKVRTCEKSDESAMSFYPPSLNDASFTLIGFSKGCVVLNQLLFELKEAKKDKNIDAFIKSIRTMYWLDGGHSGGSNTWVTYPEVLKEFAQTGIIVHTHVTPYQVRDPMRSWIGKEHKKFVQILGDLGMQVTSQIHFTKEAPSIENHFRVHEVF [C2ORF69],0.0615,0.0592
MWSLTASEGESTTAHFFLGAGDEGLGTRGIGMRPEESDSELLEDEEDEVPPEPQIIVGICAMTKKSKSKPMTQILERLCRFDYLTVVILGEDVILNEPVENWPSCHCLISFHSKGFPLDKAVAYSKLRNPFLINDLAMQYYIQDRREVYRILQEEGIDLPRYAVLNRDPARPEECNLIEGEDQVEVNGAVFPKPFVEKPVSAEDHNVYIYYPSSAGGGSQRLFRKIGSRSSVYSPESSVRKTGSYIYEEFMPTDGTDVKVYTVGPDYAHAEARKSPALDGKVERDSEGKEIRYPVMLTAMEKLVARKVCVAFKQTVCGFDLLRANGHSFVCDVNGFSFVKNSMKYYDDCAKILGNTIMRELAPQFQIPWSIPTEAEDIPIVPTTSGTMMELRCVIAIIRHGDRTPKQKMKMEVKHPRFFALFEKHGGYKTGKLKLKRPEQLQEVLDITRLLLAELEKEPGGEIEEKTGKLEQLKSVLEMYGHFSGINRKVQLTYYPHGVKASNEGQDPQRETLAPSLLLVLKWGGELTPAGRVQAEELGRAFRCMYPGGQGDYAGFPGCGLLRLHSTFRHDLKIYASDEGRVQMTAAAFAKGLLALEGELTPILVQMVKSANMNGLLDSDGDSLSSCQHRVKARLHHILQQDAPFGPEDYDQLAPTRSTSLLNSMTIIQNPVKVCDQVFALIENLTHQIRERMQDPRSVDLQLYHSETLELMLQRWSKLERDFRQKSGRYDISKIPDIYDCVKYDVQHNGSLGLQGTAELLRLSKALADVVIPQEYGISREEKLEIAVGFCLPLLRKILLDLQRTHEDESVNKLHPLCYLRYSRGVLSPGRHVRTRLYFTSESHVHSLLSVFRYGGLLDETQDAQWQRALDYLSAISELNYMTQIVIMLYEDNTQDPLSEERFHVELHFSPGVKGVEEEGSAPAGCGFRPASSENEEMKTNQGSMENLCPGKASDEPDRALQTSPQPPEGPGLPRRSPLIRNRKAGSMEVLSETSSSRPGGYRLFSSSRPPTEMKQSGLGSQCTGLFSTTVLGGSSSAPNLQDYARSHGKKLPPASLKHRDELLFVPAVKRFSVSFAKHPTNGFEGCSMVPTIYPLETLHNALSLRQVSEFLSRVCQRHTDAQAQASAALFDSMHSSQASDNPFSPPRTLHSPPLQLQQRSEKPPWYSSGPSSTVSSAGPSSPTTVDGNSQFGFSDQPSLNSHVAEEHQGLGLLQETPGSGAQELSIEGEQELFEPNQSPQVPPMETSQPYEEVSQPCQEVPDISQPCQDISEALSQPCQKVPDISQQCQENHDNGNHTCQEVPHISQPCQKSSQLCQKVSEEVCQLCLENSEEVSQPCQGVSVEVGKLVHKFHVGVGSLVQETLVEVGSPAEEIPEEVIQPYQEFSVEVGRLAQETSAINLLSQGIPEIDKPSQEFPEEIDLQAQEVPEEIN [PPIP5K1],-0.212,-0.000791
MWVNPEEVLLANALWITERANPYFILQRRKGHAGDGGGGGGLAGLLVGTLDVVLDSSARVAPYRILYQTPDSLVYWTIACGGSRKEITEHWEWLEQNLLQTLSIFENENDITTFVRGKIQGIIAEYNKINDVKEDDDTEKFKEAIVKFHRLFGMPEEEKLVNYYSCSYWKGKVPRQGWMYLSINHLCFYSFLMGREAKLVIRWVDITQLEKNATLLLPDVIKVSTRSSEHFFSVFLNINETFKLMEQLANIAMRQLLDNEGFEQDRSLPKLKRKSPKKVSALKRDLDARAKSERYRALFRLPKDEKLDGHTDCTLWTPFNKMHILGQMFVSTNYICFTSKEENLCSLIIPLREVTIVEKADSSSVLPSPLSISTRNRMTFLFANLKDRDFLVQRISDFLQQTTSKIYSDKEFAGSYNSSDDEVYSRPSSLVSSSPQRSTSSDADGERQFNLNGNSVPTATQTLMTMYRRRSPEEFNPKLAKEFLKEQAWKIHFAEYGQGICMYRTEKTRELVLKGIPESMRGELWLLLSGAINEKATHPGYYEDLVEKSMGKYNLATEEIERDLHRSLPEHPAFQNEMGIAALRRVLTAYAFRNPNIGYCQAMNIVTSVLLLYAKEEEAFWLLVALCERMLPDYYNTRVVGALVDQGVFEELARDYVPQLYDCMQDLGVISTISLSWFLTLFLSVMPFESAVVVVDCFFYEGIKVIFQLALAVLDANVDKLLNCKDDGEAMTVLGRYLDSVTNKDSTLPPIPHLHSLLSDDVEPYPEVDIFRLIRTSYEKFGTIRADLIEQMRFKQRLKVIQTLEDTTKRNVVRTIVTETSFTIDELEELYALFKAEHLTSCYWGGSSNALDRHDPSLPYLEQYRIDFEQFKGMFALLFPWACGTHSDVLASRLFQLLDENGDSLINFREFVSGLSAACHGDLTEKLKLLYKMHVLPEPSSDQDEPDSAFEATQYFFEDITPECTHVVGLDSRSKQGADDGFVTVSLKPDKGKRANSQENRNYLRLWTPENKSKSKNAKDLPKLNQGQFIELCKTMYNMFSEDPNEQELYHATAAVTSLLLEIGEVGKLFVAQPAKEGGSGGSGPSCHQGIPGVLFPKKGPGQPYVVESVEPLPASLAPDSEEHSLGGQMEDIKLEDSSPRDNGACSSMLISDDDTKDDSSMSSYSVLSAGSHEEDKLHCEDIGEDTVLVRSGQGTAALPRSTSLDRDWAITFEQFLASLLTEPALVKYFDKPVCMMARITSAKNIRMMGKPLTSASDYEISAMSG [TBC1D9],0.38,-0.4
MYLK,0.101,-0.635
